Publication PMC6606567, “Molecular tuning of farnesoid X receptor partial agonism” (Nature Communications, 2019)
Each block holds one molecule with its values, some of them ahead of it.

Key:
[1] = biological target: farnesoid X receptor ligand binding domain (FXR-LBD; isoform 4; amino acids 244-472) (human); experiment: NMR titration; HSQC of the quaternary mixture of FXR-LBD, antagonist guggulsterone, labeled co-activator (NCoA) and co-repressor (NCoR) peptides; protein:peptide:ligand 50:50:250 µM, 298 K
[2] = biological target: farnesoid X receptor ligand binding domain (FXR-LBD; isoform 4; amino acids 244-472) (human); experiment: NMR titration; 1H/13C-HSQC of Leu-labeled NCoR and NCoA peptides (50 µM) with FXR-LBD (50 µM) and CDCA (250 µM); 298 K, 50 mM Tris pH 8.3, 500 mM NaCl, 2 mM TCEP; populations from signal intensities
[3] = biological target: farnesoid X receptor ligand binding domain (FXR-LBD; isoform 4; amino acids 244-472) (human); experiment: NMR titration; 1H/13C-HSQC of Leu-labeled NCoR and NCoA peptides (50 µM) with FXR-LBD (50 µM) and GW4064 (250 µM); 298 K, 50 mM Tris pH 8.3, 500 mM NaCl, 2 mM TCEP; populations from signal intensities
[4] = biological target: farnesoid X receptor ligand binding domain (FXR-LBD; isoform 4; amino acids 244-472) (human); experiment: NMR titration; 1H/13C-HSQC of Leu-labeled NCoR and NCoA peptides (50 µM) with FXR-LBD (50 µM) and fexaramine (250 µM); 298 K, 50 mM Tris pH 8.3, 500 mM NaCl, 2 mM TCEP; populations from signal intensities
[5] = biological target: farnesoid X receptor ligand binding domain (FXR-LBD; isoform 4; amino acids 244-472) (human); experiment: NMR titration; 1H/13C-HSQC of Leu-labeled NCoR and NCoA peptides (50 µM) with FXR-LBD (50 µM) and ivermectin (250 µM); 298 K, 50 mM Tris pH 8.3, 500 mM NaCl, 2 mM TCEP; populations from signal intensities
[6] = biological target: farnesoid X receptor ligand binding domain (FXR-LBD; isoform 4; amino acids 244-472) (human); experiment: NMR titration; 1H/13C-HSQC of Leu-labeled NCoR and NCoA peptides (50 µM) with FXR-LBD (50 µM) and partial agonist 1 (250 µM); 298 K, 50 mM Tris pH 8.3, 500 mM NaCl, 2 mM TCEP; populations from signal intensities
[7] = biological target: the molecule itself; experiment: crystal structure; FXR244-472 (75 µM) incubated with 150 µM partial agonist 1 (DM175), concentrated to 375 µM, then 750 µM NCoA-2 740-752 peptide; hanging drop, 4 °C, 300 mM MgCl2, 100 mM Bis-Tris pH 7, 15-20% PEG 3350, micro seeding

free co-repressor/free co-activator ratio (part of free co-activator) [1]: 85 | free co-repressor/free co-activator ratio (part of free co-activator) [2]: 13 | free co-repressor/free co-activator ratio (part of free co-activator) [3]: 14 | free co-repressor/free co-activator ratio (part of free co-activator) [4]: 23 | free co-repressor/free co-activator ratio (part of free co-activator) [5]: 75 | free co-repressor/free co-activator ratio (part of free co-activator) [6]: 70
Molecule: Nuclear receptor co-activator 2 peptide (NCoA-2 740-752)

free co-repressor/free co-activator ratio (part of free co-repressor) [1]: 15 | free co-repressor/free co-activator ratio (part of free co-repressor) [2]: 87 | free co-repressor/free co-activator ratio (part of free co-repressor) [3]: 86 | free co-repressor/free co-activator ratio (part of free co-repressor) [4]: 77 | free co-repressor/free co-activator ratio (part of free co-repressor) [5]: 25 | free co-repressor/free co-activator ratio (part of free co-repressor) [6]: 30
Molecule: nuclear receptor co-repressor 1 peptide (NCoR-1, residues 2256-2278)

B1: farnesoid X receptor ligand binding domain (FXR-LBD; isoform 4; amino acids 244-472) (domain or fragment, human)
chain: ELTPDQQTLLHFIMDSYNKQRMPQEITNKILKEEFSAEENFLILTEMATNHVQVLVEFTKKLPGFQTLDHEDQIALLKGSAVEAMFLRSAEIFNKKLPSGHSDLLEERIRNSGISDEYITPMFSFYKSIGELKMTQEEYALLTAIVILSPDRQYIKDREAVEKLQEPLLDVLQKLCKIHQPENPQHFACLLGRLTELRTFNHHHAEMLMSWRVNDHKFTPLLCEIWDVQ
notes: numbers count on: isoform 4; also called FXR244-472; NR1H4; source: E. coli BL21(DE3) gold, purified (NiNTA, Tev cleavage, Superdex 200); not shown: His6, N-terminal, cleaved
binding result [7]: binds
